Measured values: patent publication US20140162951A1

Target: recombinant enovin (mature human enovin with NH2-terminal 6xHis tag, expressed from hEVNmat/pRSETB in E. coli) (human)
Test: SPR (BIAcore 3000), enovin immobilized, soluble GFRα3-Fc at three concentrations

Kd: 3.1 nM
koff: 0.000508 s⁻¹
kon: 165000 M⁻¹ s⁻¹
B1: soluble GFRα-3 IgG1-Fc fusion protein (Fc fusion, UniProt O60609 28-371, looked up, not shown: a dimerising Fc or GST)
chain: LAAGDPLPTESRLMNSCLQARRKCQADPTCSAAYHHLDSCTSSISTPLPSEEPSVPADCLEAAQQLRNSSLIGCMCHRRMKNQVACLDIYWTVHRARSLGNYELDVSPYEDTVTSKPWKMNLSKLNMLKPDSDLCLKFAMLCTLNDKCDRLRKAYGEACSGPHCQRHVCLRQLLTFFEKAAEPHAQGLLLCPCAPNDRGCGERRRNTIAPNCALPPVAPNCLELRRLCFSDPLCRSRLVDFQTHCHPMDILGTCATEQSRCLRAYLGLIGTAMTPNFVSNVNTSVALSCTCRGSGNLQEECEMLEGFFSHNPCLTEAIAAKMRFHSQLFSQDWPHPTFAVMAHQ
